Test results from US20150322129A1 (Sanofi, published 2015).
Read-outs that look alike come from different tables or passages of the source. Numbered stars: 1 amine (or outer) side, 2 acyl side, 3 side chain; on linkers, the order of the positions; unused ones are H or OH. Square brackets hold non-standard residues; d marks the D form. Side chains are listed from the residue outwards. Ends that are not written are not given here. * marks the point of attachment. γGlu = O=C(O)[C@H](CCC(=O)[*:2])N[*:1]; Stearoyl = CCCCCCCCCCCCCCCCCC(=O)*; Palmitoyl = CCCCCCCCCCCCCCCC(=O)*; Aib = CC(C)(N)C(=O)O

Columns and labels:
Experiment in all cases: cell-based or functional assay
human GIP receptor [1] = target: T1, human GIP receptor (human, UniProt P48546 22-466)
T1 sequence (looked up): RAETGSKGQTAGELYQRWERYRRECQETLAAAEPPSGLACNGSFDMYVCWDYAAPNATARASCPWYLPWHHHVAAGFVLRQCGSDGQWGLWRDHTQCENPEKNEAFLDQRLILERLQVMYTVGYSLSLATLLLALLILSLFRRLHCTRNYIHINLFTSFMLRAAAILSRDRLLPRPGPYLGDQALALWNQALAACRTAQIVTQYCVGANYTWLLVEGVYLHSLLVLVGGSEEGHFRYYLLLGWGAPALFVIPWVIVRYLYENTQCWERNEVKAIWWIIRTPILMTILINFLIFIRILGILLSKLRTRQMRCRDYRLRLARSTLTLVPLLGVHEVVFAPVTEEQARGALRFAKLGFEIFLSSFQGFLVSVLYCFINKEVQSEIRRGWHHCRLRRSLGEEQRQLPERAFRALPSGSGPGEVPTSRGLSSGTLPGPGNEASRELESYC

human GLP-1 receptor [2] = target: T2, human GLP-1 receptor (human, UniProt P43220 24-463)
human glucagon receptor [3] = target: T3, human glucagon receptor (human, UniProt P47871 26-477)
human GIP receptor [4] = target: T1, human GIP receptor; remark: listed apart in the source
human GLP-1 receptor [5] = target: T2, human GLP-1 receptor; remark: listed apart in the source
human glucagon receptor [6] = target: T3, human glucagon receptor; remark: listed apart in the source

T3 sequence (P47871 26-477): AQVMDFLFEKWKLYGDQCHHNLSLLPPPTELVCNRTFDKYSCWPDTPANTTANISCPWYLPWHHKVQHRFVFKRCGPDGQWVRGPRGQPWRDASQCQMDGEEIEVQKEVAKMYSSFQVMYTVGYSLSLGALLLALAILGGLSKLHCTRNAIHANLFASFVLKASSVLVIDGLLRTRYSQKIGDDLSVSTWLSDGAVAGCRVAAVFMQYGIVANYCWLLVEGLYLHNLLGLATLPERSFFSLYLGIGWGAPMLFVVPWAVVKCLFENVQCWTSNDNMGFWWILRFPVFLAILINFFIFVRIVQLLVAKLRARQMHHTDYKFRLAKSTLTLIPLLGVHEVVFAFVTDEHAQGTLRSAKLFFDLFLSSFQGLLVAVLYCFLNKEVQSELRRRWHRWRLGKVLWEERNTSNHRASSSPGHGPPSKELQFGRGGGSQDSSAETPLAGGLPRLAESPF

Row | Binder | EC50 hGIP-1 (cAMP formation) (human GIP receptor [1]) | EC50 hGLP-1R (cAMP formation) (human GLP-1 receptor [2]) | EC50 hGlucagon-R (cAMP formation) (human glucagon receptor [3]) | EC50 hGIP-R (cAMP formation) (human GIP receptor [4]) | EC50 hGLP-1R (cAMP formation) (human GLP-1 receptor [5]) | EC50 hGlucagon-R (cAMP formation) (human glucagon receptor [6])
1 | H-H[Aib]HGTFTSDLSKQK(Ac)EEEAVRLFIEWLKAGGPSSGAPPPS-NH2 [SEQ ID NO: 34] | 25.4 pM | 0.7 pM | 828 pM | – | – | –
2 | H[dS]HGTFTSDLSKQK([γGlu-Palmitoyl])EEEAVRLFIEWLKAGGPSSGAPPPS-NH2 [SEQ ID NO: 14] | 437 pM | 4.1 pM | 58.4 pM | 437 pM | 4.1 pM | 58.4 pM
3 | H[dS]HGTFTSDLSKQK([γGlu-γGlu-Palmitoyl])EEEAVRLFIEWLKAGGPSSGAPPPS-NH2 [SEQ ID NO: 13] | 79 pM | – | 22.5 pM | 79 pM | – | 22.5 pM
4 | H[Aib]HGTFTSDLSKQK([γGlu-γGlu-Palmitoyl])EEEAVRLFIEWLKAGGPSSGAPPPS-NH2 [SEQ ID NO: 11] | 7.9 pM | – | 8.9 pM | 7.9 pM | – | 8.9 pM
5 | H-H[dS]HGTFTSDLSKQK([γGlu-Stearoyl])EEEAVRLFIEWLKAGGPSSGAPPPS-NH2 (SMILES CCCCCCCCCCCCCCCCCC(=O)N[C@@H](CCC(=O)NCCCC[C@H](NC(=O)[C@H](CCC(N)=O)NC(=O)[C@H](CCCCN)NC(=O)[C@H](CO)NC(=O)[C@H](CC(C)C)NC(=O)[C@H](CC(=O)O)NC(=O)[C@H](CO)NC(=O)[C@@H](NC(=O)[C@H](Cc1ccccc1)NC(=O)[C@@H](NC(=O)CNC(=O)[C@H](Cc1c[nH]cn1)NC(=O)[C@@H](CO)NC(=O)[C@@H](N)Cc1c[nH]cn1)[C@@H](C)O)[C@@H](C)O)C(=O)N[C@@H](CCC(=O)O)C(=O)N[C@@H](CCC(=O)O)C(=O)N[C@@H](CCC(=O)O)C(=O)N[C@@H](C)C(=O)N[C@H](C(=O)N[C@@H](CCCNC(=N)N)C(=O)N[C@@H](CC(C)C)C(=O)N[C@@H](Cc1ccccc1)C(=O)N[C@H](C(=O)N[C@@H](CCC(=O)O)C(=O)N[C@@H](Cc1c[nH]c2ccccc12)C(=O)N[C@@H](CC(C)C)C(=O)N[C@@H](CCCCN)C(=O)N[C@@H](C)C(=O)NCC(=O)NCC(=O)N1CCC[C@H]1C(=O)N[C@@H](CO)C(=O)N[C@@H](CO)C(=O)NCC(=O)N[C@@H](C)C(=O)N1CCC[C@H]1C(=O)N1CCC[C@H]1C(=O)N1CCC[C@H]1C(=O)N[C@@H](CO)C(N)=O)[C@@H](C)CC)C(C)C)C(=O)O) [SEQ ID NO: 25] | 407 pM | 8.1 pM | 39.9 pM | 407 pM | 8.1 pM | 39.9 pM
6 | H[Aib]HGTFTSDLSKQK([γGlu-Palmitoyl])EEEAVRLFIEWLKAGGPSSGAPPPS-NH2 [SEQ ID NO: 12] | 8.8 pM | 3.3 pM | 12.8 pM | 8.8 pM | 3.3 pM | 12.8 pM
7 | H[dS]HGTFTSDLSKQK(Ac)EEEAVRLFIEWLKAGGPSSGAPPPS-NH2 [SEQ ID NO: 35] | 4040 pM | 0.4 pM | 2860 pM | – | – | –
8 | H[Aib]HGTFTSDLSKQK([γGlu-Stearoyl])EEEAVRLFIEWLKAGGPSSGAPPPS-NH2 [SEQ ID NO: 7] | 25.6 pM | 6.5 pM | 5.8 pM | 25.6 pM | 6.5 pM | 5.8 pM
